# Laboratory results published in the supplement of paper PMC9170038.
# Tested on: MS2 coat protein
# Assay: apparent KD of MS2 coat protein; designed switch direction (-1 OFF switch, 1 ON switch): 1; higher = weaker reporter binding
# Summary of the method: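 Transcription of designed RNA switches on Illumina chips was done by stalled E. coli RNA polymerase. SNAP-549-labelled MS2 coat protein was then titrated in doubling steps from 0.7 or 1.5 nM to 3 µM, with steps of 0.8–1.5 h at the lowest and 10–20 min at the highest concentration. The per-design median over clusters of curve-fitted normalised fluorescence is reported as apparent KD.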
# [1] = input ligand: microRNA oligo, concentration not stated
# [2] = Eterna round: R95, input ligand: microRNA oligo, concentration not stated
# [3] = Eterna round: R95, input ligand: FMN 200 uM
# [4] = Eterna round: R95, input ligand: none
Sequence,apparent KD of MS2 coat protein (input ligand: FMN 200 uM) [nM],apparent KD of MS2 coat protein [1] [nM],apparent KD of MS2 coat protein (input ligand: none) [nM],apparent KD of MS2 coat protein [2] [nM],apparent KD of MS2 coat protein [3] [nM],apparent KD of MS2 coat protein [4] [nM]
"AUUCGUUUGAUAGGAUAUCACCUUACAUGAGGAUCACCCAUGUUCACCACGCUGGUUUUUCAUACUGAGAAGGAUCUUGAUGAC [JR_SSNG2_Sub007] (Eterna round: R96, puzzle: Same State NG 2)",50.5,45.6,51.4,–,–,–
"AUUGCUAGCACAGGAUAUCAUGCGAAAAUUGCGUGAGAAGGGUGGACGCUGUCAUUCACGGAGGACAUGAGGAUCACCCAUGUC [SameState NG1 #78] (Eterna round: R96, puzzle: Same State NG 1)",54.4,53.4,62.6,–,–,–
"AUUGCUAUCACAGGAUAUCAUGCGGAAAUCGCGUGAGAAGGGUGGACUCUGUCAUUCACGGAGGACAUGAGGAUCACCCAUGUC [SS NG10LRO17] (Eterna round: R96, puzzle: Same State NG 1)",612,18.4,36.3,–,–,–
"CACAUGAGGAUCACCCAUGUGAGGCGGCAAUAAAGCCGCGCACAGGAUAUAGCGCUAUGAAUGCGCUAGAAGGGUGAUUAGAAC [Reines] (Eterna round: R96, puzzle: Same State NG 3)",240,59.9,36.5,–,–,–
"CACGCCUCGGUAGGAUAUGAGGUGCCAUAGGCAACAGCCUAUGGACAUGAGGAUCACCCAUGUCCUCAGAAGGGCCAGGCGUGA [Rexeorar] (Eterna round: R96, puzzle: Same State NG 2)",25.9,66.3,114,–,–,–
"CAGAGCCCAUGGGCCUGACAUGAGGAUCACCCAUGUGGCUUUGAGGAUAUAAGCGGAAACACCGCUUAGAAGGCGAAGCCUAAC [Atxerati] (Eterna round: R96, puzzle: Same State NG 3)",79.5,18.7,34.3,–,–,–
CAGCGCUGUUGAGAGGAUAUGCGGUGAUGGACAUGAGGAUCACCCAUGUUAGCGACAGCAUUACGGUAGAAGGCUCCACAGCUGC [Soteed Omei mod 14] (puzzle: Same State 2),–,–,–,17.9,–,–
"CAUCGUUUGAUAGGAUAUCGCUAUACAUGAGGAUCACCCAUGUUUACCACGCUGGUUUUUCAUACCGAGAAGGAUUCUGAUGAG [salish99_SSNG02_r04_012] (Eterna round: R96, puzzle: Same State NG 2)",55.3,38.3,47.6,–,–,–
"CCAACAUACAAUUUAAGAUCACAUGAGGAUCACCCAUGUAUGCAGGAUAUCAGCUCGAAUAGAGCUGAGAAGGGCAAUUUAAUU [SSNG3/1-A1] (Eterna round: R96, puzzle: Same State NG 3)",94.7,127,262,–,–,–
"CCAUAGUACAAUUUAGAUCUACAUGAGGAUCACCCAUGUACUGAGGAUAUCAGCUCGUUUAGAGCUGAGAAGGCAGAAGUACUU [SSNG3/6-A3] (Eterna round: R96, puzzle: Same State NG 3)",34.2,64.8,102,–,–,–
CCGAUGAUAGGACAGGAUAUGACUGUCGUCACAUGAGGAUCACCCAUGUCCCGGCAAUGCCACCGUUAGAAGGGUCCUAUCUCGG [Orraais] (puzzle: Same State 2),–,–,–,11.9,–,–
"CCGAUUUAUGGAGGAUAUGGAGCCUUAUUGGCUCCAGAAGGUCAAUAAACAUGAGGAUCACCCAUGUCGGCGGUCAAUAGACCG [Eli NG1ss - 71] (Eterna round: R96, puzzle: Same State NG 1)",103,84.4,180,–,–,–
"CCGCGCUGUCGAGAGGAUAUGCGGUGAUGGACAUGAGGAUCACCCAUGUUAGCGAUAGCAUUACUGUAGAAGGCUCUACGGCGGC [JL-ss2-3.09 ViennaUCT mod] (Eterna round: R96, puzzle: Same State 2)",11.2,10.2,16.3,–,–,–
CCGCGCUGUCGAGAGGAUAUGCGGUGAUGGACAUGAGGAUCACCCAUGUUAGCGAUAGCAUUACUGUAGAAGGCUCUACGGCGGC [JL-ss2-3.09 ViennaUCT mod] (puzzle: Same State 2),–,–,–,10.4,12.2,11.9
"CCGCUCCGUGGAGGAUAUGGGCCUGCCCGGGAUACCGAGCCUAACACAUGAGGAUCACCCAUGUCCCAGAAGGCCGCUGGAGCC [Inusaron] (Eterna round: R96, puzzle: Same State NG 2)",30.7,52.8,90.7,–,–,–
"CCGCUCCGUGGAGGAUAUGGGCCUGCCCGGGAUACCGGGCCUAACACAUGAGGAUCACCCAUGUCCCAGAAGGCCGCUGGAGCC [Rasoleis] (Eterna round: R96, puzzle: Same State NG 2)",18.9,85.1,58.2,–,–,–
"CCGGUUUAUGGAGGAUAUGGAGCCUUAUUGGCUCCAGAAGGCUAAUAACAUGAGGAUCACCCAUGUCCGGCGGUCAAUAGACCG [Eli NG1ss - 57] (Eterna round: R96, puzzle: Same State NG 1)",21.7,69.8,90.5,–,–,–
"CCGUAAUAUGGAGGAUAUGGAGCCUUAUUGGCUCCAGAAGGUCAAAACACAUGAGGAUCACCCAUGUCGGCGGUCAAUAGACCG [Eli NG1ss - 75] (Eterna round: R96, puzzle: Same State NG 1)",31.4,42.9,45.3,–,–,–
CCGUUGAUAGGACAGGAUAUGACUGUCGUCACAUGAGGAUCACCCAUGUCCCGGCAAUGCCACCGUUAGAAGGGUCCCGUCUCGG [Beenraor] (puzzle: Same State 2),–,–,–,16.9,–,–
"CGACGCACGGCAGGAUAUCGAUUCCAAAGGAAUCGAGAAGGGCCUCAUGUCGUGGAAACGUGACAUGAGGAUCACCCAUGUUGC [Omei SS(NG)1 Cv19] (Eterna round: R96, puzzle: Same State NG 1)",115,9.29,27.9,–,–,–
CGACGCUGUCGAGAGGAUAUGCGGUGAUGGACAUGAGGAUCACCCAUGUUAGCGAUAGCAUUACGGUAGAAGGCUCUACAGCUGU [Soteed Omei mod 5] (puzzle: Same State 2),–,–,–,202,20.4,118
CGAUCAUACUCAGGACGGAGAGUAGAGGAACAUGAGGAUCACCCAUGUAUGAGCUUUUUGCUCGUCAUGAACAGGAG [JR_SHM208a_Sub010] (puzzle: Sensor for hsa-mir-208a),–,–,–,59.7,67.2,121
CGAUGAUACUUAGGAAGAAGAGUUGAAGUACAUGAGGAUCACCCAUGUCAGAGCUUUUUGCUCGUCAUGAACAGGAA [JR_SHM208a_Sub006] (puzzle: Sensor for hsa-mir-208a),–,–,–,27.7,47.9,52.9
"CGGGACAGACCCAACAUGAGGAUCACCCAUGUCCUCGCAGGUCAGGAUAUUAUUAGGAUCACCAGUGAGAAGGGACGGUGAACC (Eterna round: R96, puzzle: Same State NG 3)",470,281,373,–,–,–
